# Data: patent US20240392013A1, “IL1RAP ANTIBODIES AND USES THEREOF” (STELEXIS THERAPEUTICS, LLC, priority 2021, published 2024)
# How the values were obtained:
# [1] = test system: IL1-induced downstream signaling (phospho-ERK, NFκB) in AML patient samples; assay: IL1 signaling in AML patient samples, Western blot; assay type: cell-based, human; conditions: antibody 20 μg/ml, IL1β 100 ng/ml
# Protocol: (§1) AML patient samples or cancer cells (AML, chronic myelogenous leukemia (CML), pancreatic, head and neck squamous cell carcinoma (HNSCC), bladder, non-small-cell lung carcinoma (NSCLC), colorectal and triple-negative breast cancer (TNBC)) were seeded in 6-well plates (5×10^5 cells/well) and incubated overnight at 37° C./5% CO2 in humified incubator. In experiments conducted in cancer cell lines, cells were washed 2× with PBS and serum-starved for 3 hours. Following, cells were treated with IL1RAP antibodies at concentration of 20 μg/ml and incubated for 1 h at 37° C./5% CO2 in humidified incubator. After 1 h, cells were treated with IL1β (Invivogen, cat: rcyec-hil1b), IL33 (Adipogen, cat: AG-40B-0160-C010) or IL36 cytokines (R@D, cat: 6836IL) at 100 ng/ml and incubated for 15 more minutes. Cells were harvested on ice after 1× wash with cold PBS and were centrifuged for 5 minutes at 5000 rpm at 4° C. Cells were then lysed with NP-40 buffer for 5 minutes on ice and centrifuged for 15 minutes at 15000 rpm at 4° C. Supernatants were collected and protein concentrations were determined by BCA (Thermofisher, Cat #PI23225). […] After 3× washes, ECL was applied (Thermofisher, Cat #32106) and proteins were detected after exposure to autoradioraphic films (Worldwide medical products, Cat #41101001) and protein intensity was quantitated using ImageJ software.
# [2] = test system: IL33-induced downstream signaling (phospho-ERK, p38, NFκB) in AML patient samples; assay: IL33 signaling in AML patient samples, Western blot; assay type: cell-based, human; conditions: antibody 20 μg/ml, IL33 100 ng/ml
# Protocol: as §1
# [3] = test system: IL1-induced downstream signaling (phospho-p38, NFκB) in THP-1 cells; assay: IL1 signaling in AML (THP-1) cells, Western blot; assay type: cell-based, human; conditions: antibody 20 μg/ml, IL1β 100 ng/ml
# Protocol: as §1
# [4] = test system: AML patient samples; assay: Proliferation of AML patient samples, Cell-Titer Glo; assay type: cell-based, human; conditions: 1 μM, 7 days
# [5] = test system: patient-derived AML samples; assay: Cell viability of patient-derived AML samples, CellTiter-Glo; assay type: cell-based, human; conditions: 15 patient-derived AML samples; 0.1-100 nM, 6 days
# Protocol: Primary patient-derived AML cells collected using leukapheresis or peripheral blood draw were selected based on expression levels of IL1RAP, IL1R1 and IL1RL1. On study day 0, cell viability was calculated, and cells were seeded at a density of 20,000 viable cells/well in 96-well plates. Cells were treated on Day 0 with IL1RAP monoclonal antibodies at a concentration of 100 nM followed by 5-fold serial dilutions. Cytarabine treatment (5 μM) was used as a positive control. Plates were kept at 37° C./5% CO2 in humified incubator and media was not changed during the duration of the assay. On Day 6, plates were removed from incubator and equilibrated to room temperature for up to 30 minutes. Then CellTiter-Glo was added to wells (100 μl) and plates were mixed for 2 minutes on plate rocker, followed by 10 minutes incubation at room temperature. Luminescent signal was recorded using Tecan plate reader and IC50s were calculated.
# [6] = test system: AML patient samples; assay: Clonogenic capacity of AML patient samples; assay type: cell-based, human; conditions: 333 nM, two weeks
# Protocol: (§2) AML patient samples or healthy control samples (4000 cells) were washed and resuspended in 30 μl Iscove's Modified Dulbecco's Medium (IMDM) media supplemented with 2% FBS. Cells […] were mixed with 3 ml methylcellulose (MthoCult H4034 Optimum) supplemented with pen/strep or primocin (100 μg/ml) and IL1RAP antibodies (333 nM) and 1 ml were seeded in 35 mm dishes in duplicates. The dishes were incubated at 37° C./5% CO2 in humidified incubator for 14-16 days. Colonies were counted using inverted microscope.
# [7] = test system: healthy control samples; assay: Clonogenic capacity of healthy control samples; assay type: cell-based, human; conditions: 333 nM, two weeks
# Protocol: as §2
# [8] = test system: SK-MEL-5 cells; assay: Jurkat-Lucia NFAT-CD16 ADCC reporter assay against SK-MEL-5 cells; assay type: cell-based; conditions: SK-MEL-5 target cells
# Source text: (§3) Methods: ADCC activity is mediated through binding of NK cell's CD16 receptors to the Fc region of antibodies. A Jurkat-Lucia NFAT-CD16 ADCC Reporter cell assay (Invivogen, Cat #jktl-nfat-cd16; https://www.invivogen.com/jurkat-lucia-nfat-adcc-adcp-cells) was used to analyze IL1RAP mAb STLX2012 for ADCC activity. Briefly, the Jurkat cell line was engineered to express the cell surface Fc receptor CD16A (FcγRIIIA) and the Lucia luciferase reporter gene. ADCC is triggered by CD16A cross-linking upon antigen-bound antibody binding at the surface of immune effector cells. Cells are maintained in the presence of zeocin (100 μg/ml) and blasticidin (10 μg/ml).
# The STLX2012-DLE antibody was then analyzed for ADCC activity using the Jurkat-Lucia NFAT-CD16 ADCC Reporter cell assay, described in Example 11 above.
# [9] = test system: AML patient-derived leukemic cells; assay: Jurkat-Lucia NFAT-CD16 ADCC reporter assay against AML patient-derived leukemic cells; assay type: cell-based, human
# Source text: as §3
# [10] = test system: AML cells (patient #6); assay: AML patient-derived sample engraftment in immunodeficient mice; assay type: in vivo, NSG-SGM3 immunodeficient mice
# Source text: Methods: NSG™-SGM3 immunodeficient mice (Jackson Laboratory) were irradiated with 200 rads and then infused with AML cells (patient #6) collected from a leukapheresis sample and then treated bi-weekly with three doses of STLX2012 or control IgG1 antibody for 7 weeks. Doses were 1 mpk, 10 mpk, or 30 mpk for STLX2012, and 30 mpk for control IgG1.
# [11] = day 50, 1, 10, 30 mpk bi-weekly 7 weeks, vs control IgG
molecule,measurement,setting,value
"74804_12A21B: anti-IL1RAP mAb; VH SEQ ID NO:6, VL SEQ ID NO:23, κ light chain (antibody, V domains shown, 74804_12A21B VH and 74804_29D13A VH; 74804_12A21B VL) VH: QVQLLQSGAEVKKPGSSVKVSCKASGGTFSIYAIDWVRQAPGQGLEWMGGIIPIFGTANSAQKFQGRVTITADKSTSTAYMELSSLRSEDTAVYYCARNGATSDAFDMWGQGTMVTVSS VL: EIVLTQSPGTLSLSPGERATLSCRASLSVSSNYLAWFQQRPGQAPRLLIHGVSRRATGIPDRFSGSGSGTDFTLTISRLEPEDFAVYYCQQYGSSPLTFGGGTKVEIK",Inhibition of IL1 signaling (phosphorylation of ERK and NFκB),[1],inhibited IL1 signaling in AML patient samples
same,"Inhibition of IL33 signaling (phosphorylation of ERK, p38 and NFκB)",[2],inhibited IL33 signaling in AML patient samples
same,Inhibition of IL1 signaling (phosphorylation of p38 and NFκB),[3],inhibited IL1 signaling in these AML (THP-1) cells
same,Inhibition of cell proliferation,[4],inhibited cell proliferation
same,Inhibition of viability,[5],inhibition of viability of patient-derived AML samples
same,Inhibition of clonogenic capacity (colony formation),[6],inhibited the clonogenic capacity
same,Effect on clonogenic capacity of healthy control samples,[7],did not affect the clonogenic capacity of healthy control samples
same,ADCC activity (reporter),[8],showed ADCC activity
same,ADCC activity (reporter),[9],showed ADCC activity
same,"bone marrow (BM) chimerism, dose dependence","[10]; 1, 10, 30 mpk",dose-dependent reduction in bone marrow (BM) chimerism
same,human CD45+AML cells in spleens,[10]; [11],significantly reduced human CD45+AML cells
same,human CD45+AML cells in the bone marrow,[10]; [11],significantly reduced human CD45+AML cells
